According to the supplement of paper PMC10724198:

system: Saccharomyces cerevisiae; assay: protein stability index of tFT-peptide fusion in deletion strain of DAS1 (PSI (0-1 scale)); higher = more stable (slower turnover)
Description: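 MPS profiling in S. cerevisiae of two library types built from selected 12-aa C-degron peptides (IN1, IN2, LN1, LN3, VN2, R1-R5, W1-W3, Atg1 and Rpa12 C-termini): saturation mutagenesis libraries and C-terminal +1 capping libraries (13 aa). Each peptide is fused to the C-terminus of a sfGFP-mCherry timer, after a GGGS linker. Cells are FACS-sorted into 8 mCherry/sfGFP bins and sequenced. PSI runs from 0 (unstable) to 1 (stable), measured once in wild type and in the das1Δ or doa10Δ background.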
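Further: PSI is a weighted mean of each variant's read distribution over the sorted stability bins, computed only for variants having over 10 reads in total.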

Question: For CTSCGYKFYTNN, which protein stability index is on record?
Answer: 0.701

Question: For CTSCGYKHRTNN, which protein stability index is on record?
Answer: 0.687

Question: For CTSCGYKWRTNN, which protein stability index is on record?
Answer: 0.659

Question: With CTSCGYVFRTNN as the sequence, how does the protein stability index read?
Answer: 0.698

Question: With CTSCNYKFRTNN as the sequence, how does the protein stability index read?
Answer: 0.681

Question: CTSCTYKFRTNN was tested. Which protein stability index did it give?
Answer: 0.648

Question: How did the protein stability index turn out when CTSVGYKFRTNN was run?
Answer: 0.682

Question: CTVCGYKFRTNN was tested. Which protein stability index did it give?
Answer: 0.704

Question: For CVSCGYKFRTNN, which protein stability index is on record?
Answer: 0.705

Question: How did the protein stability index turn out when CWSCGYKFRTNN was run?
Answer: 0.714

Question: Which protein stability index does the source give for DSLAASFWRVVG here?
Answer: 0.697

Question: With ELIQPLPVQFLN as the sequence, how does the protein stability index read?
Answer: 0.612

Question: How did the protein stability index turn out when EVVYLSCVACIN was run?
Answer: 0.0291

Question: How did the protein stability index turn out when FCMRWTFRYWVN was run?
Answer: 0.481

Question: FDKRNHLIKLLN was tested. Which protein stability index did it give?
Answer: 0.589

Question: FHMRWTFRYWVN was tested. Which protein stability index did it give?
Answer: 0.466

Question: How did the protein stability index turn out when FLIQPLPVQFLN was run?
Answer: 0.582

Question: How did the protein stability index turn out when FSIRWTFRYWVN was run?
Answer: 0.335

Question: How did the protein stability index turn out when FSMRDTFRYWVN was run?
Answer: 0.833

Question: With FSMRVTFRYWVN as the sequence, how does the protein stability index read?
Answer: 0.352

Question: For FSMRWAFRYWVN, which protein stability index is on record?
Answer: 0.58

Question: For FSMRWLFRYWVN, which protein stability index is on record?
Answer: 0.573

Question: Which protein stability index does the source give for FSMRWSFRYWVN here?
Answer: 0.544

Question: With FSMRWTDRYWVN as the sequence, how does the protein stability index read?
Answer: 0.568

Question: Which protein stability index does the source give for FSMRWTFRFWVN here?
Answer: 0.419

Question: For FSMRWTFRIWVN, which protein stability index is on record?
Answer: 0.288

Question: Which protein stability index does the source give for FSMRWTFRSWVN here?
Answer: 0.515

Question: FSMRWTFRYHVN was tested. Which protein stability index did it give?
Answer: 0.472

Question: For FSMRWTFRYNVN, which protein stability index is on record?
Answer: 0.568

Question: FSMRWTFRYVVN was tested. Which protein stability index did it give?
Answer: 0.496

Question: With FSMRWTFRYWDN as the sequence, how does the protein stability index read?
Answer: 0.554

Question: With FSMRWTFRYWRN as the sequence, how does the protein stability index read?
Answer: 0.531

Question: Which protein stability index does the source give for FSMRWTFRYWVC here?
Answer: 0.403

Question: Which protein stability index does the source give for FSMRWTFRYWVD here?
Answer: 0.467

Question: With FSMRWTFRYWVNN as the sequence, how does the protein stability index read?
Answer: 0.558

Question: Which protein stability index does the source give for FSMRWTFRYWVNQ here?
Answer: 0.558

Question: Which protein stability index does the source give for FSMRWTFRYWVQ here?
Answer: 0.48

Question: How did the protein stability index turn out when FSMRWTFRYWVY was run?
Answer: 0.374

Question: Which protein stability index does the source give for FSMRWTFRYYVN here?
Answer: 0.482

Question: For FSMRWTHRYWVN, which protein stability index is on record?
Answer: 0.561

Question: FSMWWTFRYWVN was tested. Which protein stability index did it give?
Answer: 0.444

Question: Which protein stability index does the source give for FSNRWTFRYWVN here?
Answer: 0.617

Question: For GKHKKGQKQKIN, which protein stability index is on record?
Answer: 0.585

Question: For GLIQPLPVQFLN, which protein stability index is on record?
Answer: 0.62

Question: With HDKRNHLIKLLN as the sequence, how does the protein stability index read?
Answer: 0.581

Question: For HKILRQKMNHQN, which protein stability index is on record?
Answer: 0.683

Question: How did the protein stability index turn out when IVVYLSCVACIN was run?
Answer: 0.0302

Question: For KKHAKGQKQKIN, which protein stability index is on record?
Answer: 0.565

Question: Which protein stability index does the source give for KKHKKGPKQKIN here?
Answer: 0.603

Question: Which protein stability index does the source give for KKHKKGQAQKIN here?
Answer: 0.605

Question: With KKHKKGQKIKIN as the sequence, how does the protein stability index read?
Answer: 0.576

Question: KKHKKGQKQEIN was tested. Which protein stability index did it give?
Answer: 0.589

Question: KKHKKGQKQKAN was tested. Which protein stability index did it give?
Answer: 0.709

Question: For KKHKKGQKQKIK, which protein stability index is on record?
Answer: 0.553

Question: With KKHKKGQKQKIL as the sequence, how does the protein stability index read?
Answer: 0.595

Question: For KKHKKGQKQKIS, which protein stability index is on record?
Answer: 0.607

Question: For KKHKKGQKQMIN, which protein stability index is on record?
Answer: 0.591

Question: Which protein stability index does the source give for KKHKKGQKVKIN here?
Answer: 0.615

Question: KKHKKGQLQKIN was tested. Which protein stability index did it give?
Answer: 0.628

Question: With KKHKKGQNQKIN as the sequence, how does the protein stability index read?
Answer: 0.625

Question: KKHKKQQKQKIN was tested. Which protein stability index did it give?
Answer: 0.59

Question: How did the protein stability index turn out when KLHKKGQKQKIN was run?
Answer: 0.612

Question: KTSCGYKFRTNN was tested. Which protein stability index did it give?
Answer: 0.679

Question: How did the protein stability index turn out when LDKRNHLIKLLN was run?
Answer: 0.599

Question: With LEVYLSCVACIN as the sequence, how does the protein stability index read?
Answer: 0.0737

Question: How did the protein stability index turn out when LKILDQKMNHQN was run?
Answer: 0.691

Question: LKILRLKMNHQN was tested. Which protein stability index did it give?
Answer: 0.65

Question: With LKILRQIMNHQN as the sequence, how does the protein stability index read?
Answer: 0.693

Question: LKILRQKDNHQN was tested. Which protein stability index did it give?
Answer: 0.666

Question: How did the protein stability index turn out when LKILRQKMNHQC was run?
Answer: 0.635

Question: LKILRQKMNHSN was tested. Which protein stability index did it give?
Answer: 0.674

Question: How did the protein stability index turn out when LKILRQKMNLQN was run?
Answer: 0.666

Question: For LKILRQKMNWQN, which protein stability index is on record?
Answer: 0.661

Question: For LKILRQKMYHQN, which protein stability index is on record?
Answer: 0.658

Question: Which protein stability index does the source give for LKILRQLMNHQN here?
Answer: 0.665

Question: Which protein stability index does the source give for LKILRQPMNHQN here?
Answer: 0.68

Question: With LKILRQWMNHQN as the sequence, how does the protein stability index read?
Answer: 0.693

Question: How did the protein stability index turn out when LKILRQYMNHQN was run?
Answer: 0.675

Question: Which protein stability index does the source give for LKQLRQKMNHQN here?
Answer: 0.663

Question: How did the protein stability index turn out when LKSLRQKMNHQN was run?
Answer: 0.681

Question: For LLVYLSCVACIN, which protein stability index is on record?
Answer: 0.0429

Question: For LRWRVGLWRGAS, which protein stability index is on record?
Answer: 0.682

Question: LSMRWTFRYWVN was tested. Which protein stability index did it give?
Answer: 0.531

Question: How did the protein stability index turn out when LVVHLSCVACIN was run?
Answer: 0.0251

Question: How did the protein stability index turn out when LVVYDSCVACIN was run?
Answer: 0.468

Question: How did the protein stability index turn out when LVVYLNCVACIN was run?
Answer: 0.0265

Question: Which protein stability index does the source give for LVVYLPCVACIN here?
Answer: 0.202

Question: For LVVYLSCNACIN, which protein stability index is on record?
Answer: 0.0655

Question: With LVVYLSCVACINA as the sequence, how does the protein stability index read?
Answer: 0.0343

Question: LVVYLSCVACINP was tested. Which protein stability index did it give?
Answer: 0.0332

Question: How did the protein stability index turn out when LVVYLSCVACIP was run?
Answer: 0.0442

Question: With LVVYLSCVLCIN as the sequence, how does the protein stability index read?
Answer: 0.141

Question: Which protein stability index does the source give for LVVYLSCVQCIN here?
Answer: 0.0333

Question: LVVYLSGVACIN was tested. Which protein stability index did it give?
Answer: 0.264

Question: For LVVYLSIVACIN, which protein stability index is on record?
Answer: 0.0849

Question: For LVVYLSSVACIN, which protein stability index is on record?
Answer: 0.0579

Question: With LVVYLWCVACIN as the sequence, how does the protein stability index read?
Answer: 0.0851

Question: With LVYYLSCVACIN as the sequence, how does the protein stability index read?
Answer: 0.0331

Question: Which protein stability index does the source give for LWILRQKMNHQN here?
Answer: 0.695

Question: With MLIQPLPVQFLN as the sequence, how does the protein stability index read?
Answer: 0.654

Question: NVVYLSCVACIN was tested. Which protein stability index did it give?
Answer: 0.0341

Question: For PAKRNHLIKLLN, which protein stability index is on record?
Answer: 0.618

Question: How did the protein stability index turn out when PALAASFWRVVG was run?
Answer: 0.687

Question: With PDCRNHLIKLLN as the sequence, how does the protein stability index read?
Answer: 0.673

Question: PDIRNHLIKLLN was tested. Which protein stability index did it give?
Answer: 0.675

Question: PDKRNFLIKLLN was tested. Which protein stability index did it give?
Answer: 0.61

Question: PDKRNHHIKLLN was tested. Which protein stability index did it give?
Answer: 0.665

Question: For PDKRNHIIKLLN, which protein stability index is on record?
Answer: 0.57

Question: Which protein stability index does the source give for PDKRNHLEKLLN here?
Answer: 0.63

Question: With PDKRNHLIGLLN as the sequence, how does the protein stability index read?
Answer: 0.609

Question: Which protein stability index does the source give for PDKRNHLIILLN here?
Answer: 0.66

Question: Which protein stability index does the source give for PDKRNHLIKLLNL here?
Answer: 0.665

Question: Which protein stability index does the source give for PDKRNHLIKTLN here?
Answer: 0.604

Question: PDKRNHLIVLLN was tested. Which protein stability index did it give?
Answer: 0.637

Question: How did the protein stability index turn out when PDKRNHLNKLLN was run?
Answer: 0.579

Question: Which protein stability index does the source give for PDKRNHLRKLLN here?
Answer: 0.574

Question: PDKRNHRIKLLN was tested. Which protein stability index did it give?
Answer: 0.661
